# Changes are numbered by the printed parent chain. Numbers in names are those of the source. Where “and” joins values, the source holds several entries; their conditions need not be identical. Equal entries are not always repeated.
# B1: E. coli MoaB (natural protein, Escherichia coli, UniProt P0AEZ9 1-170, looked up)
# chain: MSQVSTEFIPTRIAILTVSNRRGEEDDTSGHYLRDSAQEAGHHVVDKAIVKENRYAIRAQVSAWIASDDVQVVLITGGTGLTEGDQAPEALLPLFDREVEGFGEVFRMLSFEEIGTSTLQSRAVAGVANKTLIFAMPGSTKACRTAWENIIAPQLDARTRPCNFHPHLKK
# notes: MoaB of Escherichia coli; also called EcoMoaB; source: E. coli, purified (Ni-NTA)
# B2: Pyrococcus furiosus MPT-adenylyl-transferase MoaB, wild type (enzyme)
# chain: MGVEEHKKEAPKTFKFGVITVSDKGAKGEREDKSGPLIIEELSKLGEHVYYKIVPDDKIEVLIALFEAIKSGADVVVTTGGTGITRRDITIESIKPLFDKELSFGEVFRAKSYEEVGYATVLTRATAGIIRGQERIVVVFSLPGSVNAVKTGLEIIKSEVFHILKHARE
# notes: MoaB, MPT-adenylyl-transferase of Pyrococcus furiosus; residues from 1 on are in the construct (1-9/10/11 disordered in the crystal), Glu169 is named; predicted mass with tag 19,971.95 Da; also called PfuMoaB; PfuMoaB-WT; source: E. coli BL21(DE3), purified (Ni-NTA); not shown: His-tag, N-terminal, kept
# B3: PfuMoaB I59R/I63R/F66R variant (enzyme, Pyrococcus furiosus)
# chain: B2 chain with I59R, I63R, F66R
# notes: MoaB of Pyrococcus furiosus with three arginines in the α3-helix; Increased tendency to precipitation was observed
# B4: G-domain of A. thaliana Cnx1 (domain or fragment, Arabidopsis thaliana)
# chain: VPGPEYKVAILTVSDTVSAGAGPDRSGPRAVSVVDSSSEKLGGAKVVATAVVPDEVERIKDILQKWSDVDEMDLILTLGGTGFTPRDVTPEATKKVIERETPGLLFVMMQESLKITPFAMLSRSAAGIRGSTLIINMPGNPNAVAECMEALLPALKHALKQIKGDKR
# notes: G domain of the molybdenum cofactor biosynthesis protein Cnx1 of Arabidopsis thaliana; also called AthCnx1G; Cnx1G; source: E. coli, purified (Ni-NTA)
# B5: E. coli MogA (enzyme, Escherichia coli, UniProt P0AF03 1-195, looked up)
# chain: MNTLRIGLVSISDRASSGVYQDKGIPALEEWLTSALTTPFELETRLIPDEQAIIEQTLCELVDEMSCHLVLTTGGTGPARRDVTPDATLAVADREMPGFGEQMRQISLHFVPTAILSRQVGVIRKQALILNLPGQPKSIKETLEGVKDAEGNVVVHGIFASVPYCIQLLEGPYVETAPEVVAAFRPKSARRDVSE
# notes: MogA, MPT-adenylyl-transferase of Escherichia coli; also called EcoMogA; MogA (E. coli); source: E. coli, purified (Ni-NTA); not shown: His-tag, N-terminal, kept
# Assays:
# [1] = target: PfuMoaB-H3 variant (α3-helix exchanged against the corresponding helix of E. coli MogA) (Pyrococcus furiosus) (UniProt Q8U3T3); experiment: cross-linking; 0.5 mg/ml protein, 2 mM EDC, 0.1 M MES pH 6.0, 0.5 M NaCl, 3 h; SDS-PAGE; trimer bands analysed by LC-MS/MS
# [2] = target: PfuMoaB-H3 variant (α3-helix exchanged against the corresponding helix of E. coli MogA) (Pyrococcus furiosus) (UniProt Q8U3T3); experiment: cross-linking; 0.5 mg/ml protein, 1.5 mM BS3, 20 mM sodium phosphate pH 8.0, 0.2 M NaCl, 30 min; SDS-PAGE
# [3] = target: PfuMoaB-H3 variant (α3-helix exchanged against the corresponding helix of E. coli MogA) (Pyrococcus furiosus) (UniProt Q8U3T3); experiment: SEC; analytical Superdex 200 10/300, 0.1 M Tris pH 8.0, 0.2 M NaCl, 0.5 ml/min, 4°C; 5-10 nmol of Ni-NTA purified protein; masses by standard proteins
# [4] = target: the molecule itself; experiment: as above
# [5] = target: the molecule itself; experiment: crystal structure; space group P3(1)21, three chains in the asymmetric unit, hexamer by the two-fold crystallographic axis; crystals from 0.1 MES pH 6.0, 40% PEG 400, 5% PEG 3000, 20°C; 2.5 Å
# [6] = target: the molecule itself; experiment: cross-linking; 0.5 mg/ml protein, 2 mM EDC, 0.1 M MES pH 6.0, 0.5 M NaCl, 3 h; SDS-PAGE; trimer bands analysed by LC-MS/MS
# [7] = target: the molecule itself; experiment: SEC; preparative Superdex 200 16/60 pg, Ni-NTA purified protein; fractions analysed by SDS-PAGE
molecule,measurement,setting,value
PfuMoaB-H3 variant (α3-helix exchanged against the corresponding helix of E. coli MogA) (from UniProt Q8U3T3 1-169) (enzyme),stoichiometry N,[1],2 and 3
same,stoichiometry N,[2],3 and 2
same,stoichiometry N,[3],3 and 2
B1,stoichiometry N,[4],6
B2,stoichiometry N,[5],6
same,stoichiometry N,[6],3 and 2
B3,binding result,[7],binds
B4,stoichiometry N,[4],3
B5,stoichiometry N,[4],3
